{"source": "paper PMC7896505", "about": "“Expression, purification, crystallization and preliminary X-ray crystallographic studies of a mitochondrial membrane-associated protein Cbs2 from Saccharomyces cerevisiae” (PeerJ, 2021)", "target": "the molecule itself", "test": "SEC; Superdex 200 10/300 in buffer G (20 mM Tris-HCl pH 7.5, 100 mM NaCl, 2 mM DTT); molecular weight from a calibration curve (Gel Filtration Calibration Kits HMW and LMW); peak at approximately 90 KDa against about 44 KDa on SDS-PAGE", "data": [{"protein": "Cbs2 from Saccharomyces cerevisiae (natural protein, S. cerevisiae, UniProt P14905 1-389, looked up, 389 amino acids; The selenomethionine derivative (Se-Cbs2) was used only for crystallization; also called recombinant Cbs2; Cbs2-His tag; source: E. coli C43 (DE3), purified (Ni-NTA, Hitrap Q anion exchange, Superdex 200 gel filtration)) MSSSIPRVYSLGNSAMTYLLALRIAQLPSQPKVPSVVLLLNDQKKLNRFLNNDSKIIVKSSNNNKETYHRQFMASCVPPILSNGEIAPIENLIVSDPSSKFITAQLSKYNKSLRPETNILFLNPSLNLLEHLHRYRWRFDEARPNLFMGFTTPVDVGTIHQEFQLSLKVKGRIQFHIAKIDGFPRMSSTGKSASLSLRGDRQKNEKENNAFYKLFREISRLRSGIGSDLVSFDLHVHGFQDLFFTELEKLILESCTEPLLAVYDCVYKKELLKIPGAQDIIKKLISEQLSIIDRSYPSLNTNPNYSVIFDKERIFSLVMRDLEVNGHKRAKLAQSLNQLNQTNINELNGFFVSLGKYKKCNCKWNDILLTLIKGKQFITKQKALDYHYL", "values": [{"measurement": "stoichiometry N", "value": 2}]}]}
